Measured values reported in article PMC8382222 (2021).
Blank lines part the entries; values can stand above or below the binder they belong to.

What was measured:
CRP-1 peptide = CRP-1 peptide (C-terminal amide (amidate version); cyclized); test: SPR
VEGF-114 peptide = VEGF-114 peptide (C-terminal amide (amidate version); cyclized); test: SPR

Kd (CRP-1 peptide): 12 µM
koff (CRP-1 peptide): 0.046 s⁻¹
B1: C-reactive protein (CRP) (natural protein)
chain: QTDMSRKAFVFPKESDTSYVSLKAPLTKPLKAFTVCLHFYTELSSTRGYSIFSYATKRQDNEILIFWSKDIGYSFTVGGSEILFEVPEVTVAPVHICTSWESASGIVEFWVDGKPRVRKSLKKGYTVGAEASIILGQEQDSFGGNFEGSQSLVGDIGNVNMWDFVLSPDEINTIYLGGPFSPNVLNWRALKYEVQGEVFTKPQLWP

Kd (VEGF-114 peptide): 10.3 µM
koff (VEGF-114 peptide): 0.75 s⁻¹
B2: vascular endothelial growth factor (Recombinant Human VEGF165) (ligand)
chain: APMAEGGGQNHHEVVKFMDVYQRSYCHPIETLVDIFQEYPDEIEYIFKPSCVPLMRCGGCCNDEGLECVPTEESNITMQIMRIKPHQGQHIGEMSFLQHNKCECRPKKDRARQENPCGPCSERRKHLFVQDPQTCKCSCKNTDSRCKARQLELNERTCRCDKPRR
